# Data as given in publication PMC9307851.
# B1: 24-mer DNA duplex (GAC)8 (dsDNA)
# DNA 1: GACGACGACGACGACGACGACGAC
# DNA 2: GTCGTCGTCGTCGTCGTCGTCGTC
# What was measured:
# [1] = target: DNMT3B MTase domain L664P (human, UniProt Q9UBC3 569-853, L664P); experiment: ITC; 5 C; N.M. (not measurable); text says much reduced; ITC: 20 mM Tris-HCl pH 7.2, 200 mM NaCl, 5% glycerol, 2 mM b-mercaptoethanol, 5 C; EMSA: 50 mM Tris-HCl pH 8.0, 25% glycerol, 8% glucose, 2 mM DTT, 0.1 mg/mL BSA, 30 min, gel in 0.5x TBE at 4 C; conditions: protein: recombinant; tags: His6-MBP removed by TEV; (only upper strand given)
# [2] = target: DNMT3B MTase domain R670Q (human, UniProt Q9UBC3 569-853, R670Q); experiment: ITC; 5 C; N fixed at 0.5; ITC: 20 mM Tris-HCl pH 7.2, 200 mM NaCl, 5% glycerol, 2 mM b-mercaptoethanol, 5 C; EMSA: 50 mM Tris-HCl pH 8.0, 25% glycerol, 8% glucose, 2 mM DTT, 0.1 mg/mL BSA, 30 min, gel in 0.5x TBE at 4 C; conditions: protein: recombinant; tags: His6-MBP removed by TEV; (only upper strand given)
binder,measurement,setting,value
B1,binding result,[1],no binding
same,Kd,[2],24.4 ± 4.4 µM
